Test results from patent publication US20200109211A1 (ELSALYS BIOTECH, published 2020).

Tests used:
[1] = target: T1, recombinant human CD160 protein, soluble form, with a C-terminal tag of 6 histidine residues (R&D SYSTEMS) (human, UniProt O95971 27-159, limits assumed, biotinylated with EZ-Link sulfo-NHS-LC-biotin for BLI and ELISA; not biotinylated when immobilised on the CM5 chip for SPR); assay: BLI
T1 construct: domain: soluble form; Bought protein; also called hCD160-his; biotinylated CD160
T1 sequence: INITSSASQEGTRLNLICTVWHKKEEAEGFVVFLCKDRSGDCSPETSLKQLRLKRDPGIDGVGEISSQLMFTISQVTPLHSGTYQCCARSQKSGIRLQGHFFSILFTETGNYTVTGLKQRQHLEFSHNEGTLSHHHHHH

[2] = target: T1, recombinant human CD160 protein, …; assay: BLI (repeats Table 7)
[3] = target: T2, human CD160 (CD160 GPI isoform) on cells (human, UniProt O95971 25-159, GPI anchor); assay: flow cytometry on CHO-hCD160 transfectants
T2 construct: whole, on cells; Used for all cells said to carry human CD160: transfected CHO-S and E300 cells and cells that carry it naturally (YT2C2, blood NK, CD8+ T, T CD4, CLL cells); also called hCD160; CHO-S-hCD160 (clone 2G10)
T2 sequence (looked up): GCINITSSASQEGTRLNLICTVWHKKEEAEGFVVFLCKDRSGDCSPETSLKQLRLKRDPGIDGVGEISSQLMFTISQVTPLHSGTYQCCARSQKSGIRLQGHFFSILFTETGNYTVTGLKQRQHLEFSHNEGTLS
Method: The binding capacity of the anti-CD160 H7 antibodies and of the variants (D12 and A09) thereof in the IgG4 and IgG1 format and in the IgG1 E345K format was evaluated during the labelling of surface CD160 expressed in a recombinant line CHO-S-hCD160 (clone 2G10) in comparison with non-transfected CHO-S cells, by measuring the median fluorescence index (MFI) (see FIG. 1). For this, 5×10⁺⁵ 2G10 (CHO-S-CD160) and non-transfected CHO-S cells were labelled with 2 μg of each of these antibodies and also with the appropriate control isotypes. In FIG. 1, all the anti-CD160 tested (regardless of the isotype or the IgG format or the variant) specifically recognize human CD160 expressed recombinantly by the CHO-S cells.
In FIG. 1B, the IgG4 variants bind more efficiently to the CHO-hCD160 transfectants than H7 (which results in a median fluorescence increased by a factor of 2 compared with H7 IgG4 ELB01101 or with H7 IgG4 H310A-H435Q ELB01102), this being even in the presence of the H310A-H435Q mutations.

[4] = target: T1, recombinant human CD160 protein, …; assay: SPR (Biacore), design close to Example 2
[5] = target: T1, recombinant human CD160 protein, …; assay: BLI, biotinylated CD160 at 10 nM on streptavidin sensor, antibody 3.13-100 nM
Method: The dissociation constants and the association (kₒₙ) and dissociation (kdis) rate constants for each antibody were calculated by applying a 1:1 interaction model, with overall mathematical modelling of curves (fit) (Rmax bound by the sensor) on the ForteBio 9.0 data analysis software.

[6] = target: T2, human CD160 (CD160 GPI isoform) on cells; assay: flow cytometry, percentage of labelled YT2C2 NK cells, antibody 0.39-50 nM; the text means better binding
Method: (§1) The binding capacity of the anti-CD160 H7 antibody and of the H7 D12 variant in the IgG4, Fab and Fab-linker Fab format was evaluated during the labelling of surface CD160 expressed naturally on a clone of NK cell line (YT2C2), by measuring the percentage of cell labelled=percentage of binding (see FIG. 1C). For this, 2×10⁺⁵ YT2C2 cells were labelled with increasing concentration of antibodies (from 50 nM to 0.39 nM) and also with the appropriate control isotype. […] In FIG. 1C, IgG4 variants ELB01103 and ELB01104 bind more efficiently to the YT2C2 cells than the H7 IgG4 ELB01101 (which results in a EC₅₀ increased by a factor of 10 compared with H7 IgG4). This is also true for the Fab-linker-Fab format ELB01132. By contrast Fab format ELB01122 bind less efficiently to the YT2C2 cells than the H7 IgG4 ELB01101 (which results in a EC₅₀ decreased by a factor of 2 compared with H7 IgG4). This is certainly due to the monovalency of the Fab format.

[7] = target: T2, human CD160 (CD160 GPI isoform) on cells; assay: flow cytometry, percentage of labelled YT2C2 NK cells (2x10^5 cells), antibody 0.39 to 50 nM [panel C]
Method: as §1

Gain in KD/respective IgG [1]: 1.7 fold | Kd [2]: 1.52 nM | koff [2]: 0.000752 s⁻¹ | kon [2]: 494000 M⁻¹ s⁻¹ | median fluorescence, factor against H7 IgG4 ELB01101 [3]: 2 fold | Gain in KD/respective IgG [4]: 3.1 fold | Kd [4]: 4.2 nM | koff [4]: 0.00122 s⁻¹ | kon [4]: 292000 M⁻¹ s⁻¹ | Kd [5]: 1.52 nM | koff [5]: 0.000752 s⁻¹ | kon [5]: 494000 M⁻¹ s⁻¹ | EC50, factor against H7 IgG4 (ELB01101) [6]: 10 fold | EC50 (read off the curve) [7]: ~3 nM
B1: D12 IgG4 S228P/R409K (antibody)
heavy: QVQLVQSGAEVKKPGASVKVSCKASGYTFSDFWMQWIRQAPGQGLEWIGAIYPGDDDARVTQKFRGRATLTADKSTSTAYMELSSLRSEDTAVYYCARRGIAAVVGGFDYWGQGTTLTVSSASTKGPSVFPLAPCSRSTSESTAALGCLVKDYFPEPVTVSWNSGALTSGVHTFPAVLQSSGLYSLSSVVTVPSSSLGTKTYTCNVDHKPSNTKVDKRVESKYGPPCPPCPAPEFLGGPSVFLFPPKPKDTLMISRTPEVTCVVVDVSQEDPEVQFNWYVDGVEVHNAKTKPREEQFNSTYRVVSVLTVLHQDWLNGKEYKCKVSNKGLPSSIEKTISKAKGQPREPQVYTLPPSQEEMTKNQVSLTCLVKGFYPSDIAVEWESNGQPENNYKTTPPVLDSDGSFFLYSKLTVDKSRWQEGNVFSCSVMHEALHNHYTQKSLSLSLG
light: EIVLTQSPATLSLSPGERATLSCRASQSISNHLHWYQQKPGQAPRLLIKYASQSISGIPARFSGSGSGTDFTLTISSLEPEDFAVYFCQQSNSWPLTFGGGTKVEIKRTVAAPSVFIFPPSDEQLKSGTASVVCLLNNFYPREAKVQWKVDNALQSGNSQESVTEQDSKDSTYSLSSTLTLSKADYEKHKVYACEVTHQGLSSPVTKSFNRGEC
notes: also called ELB01103; H7 IgG4 D12
